{"source": "paper PMC3656124", "about": "“DNA Topoisomerase II Is Involved in Regulation of Cyst Wall Protein Genes and Differentiation in Giardia lamblia” (PLoS Neglected Tropical Diseases, 2013)", "binders": {"B1": {"name": "IIBS (dsDNA)", "DNA 1": "ATGAAATCTAACAATGCGCTCATCGTCATCCTCGGC", "DNA 2": "GCCGAGGATGACGATGAGCGCATTGTTAGATTTCAT"}}, "key": {"[1]": {"target": "T1, Topo II (Giardia lamblia, UniProt E2RU90 1-1491)", "T1 sequence": "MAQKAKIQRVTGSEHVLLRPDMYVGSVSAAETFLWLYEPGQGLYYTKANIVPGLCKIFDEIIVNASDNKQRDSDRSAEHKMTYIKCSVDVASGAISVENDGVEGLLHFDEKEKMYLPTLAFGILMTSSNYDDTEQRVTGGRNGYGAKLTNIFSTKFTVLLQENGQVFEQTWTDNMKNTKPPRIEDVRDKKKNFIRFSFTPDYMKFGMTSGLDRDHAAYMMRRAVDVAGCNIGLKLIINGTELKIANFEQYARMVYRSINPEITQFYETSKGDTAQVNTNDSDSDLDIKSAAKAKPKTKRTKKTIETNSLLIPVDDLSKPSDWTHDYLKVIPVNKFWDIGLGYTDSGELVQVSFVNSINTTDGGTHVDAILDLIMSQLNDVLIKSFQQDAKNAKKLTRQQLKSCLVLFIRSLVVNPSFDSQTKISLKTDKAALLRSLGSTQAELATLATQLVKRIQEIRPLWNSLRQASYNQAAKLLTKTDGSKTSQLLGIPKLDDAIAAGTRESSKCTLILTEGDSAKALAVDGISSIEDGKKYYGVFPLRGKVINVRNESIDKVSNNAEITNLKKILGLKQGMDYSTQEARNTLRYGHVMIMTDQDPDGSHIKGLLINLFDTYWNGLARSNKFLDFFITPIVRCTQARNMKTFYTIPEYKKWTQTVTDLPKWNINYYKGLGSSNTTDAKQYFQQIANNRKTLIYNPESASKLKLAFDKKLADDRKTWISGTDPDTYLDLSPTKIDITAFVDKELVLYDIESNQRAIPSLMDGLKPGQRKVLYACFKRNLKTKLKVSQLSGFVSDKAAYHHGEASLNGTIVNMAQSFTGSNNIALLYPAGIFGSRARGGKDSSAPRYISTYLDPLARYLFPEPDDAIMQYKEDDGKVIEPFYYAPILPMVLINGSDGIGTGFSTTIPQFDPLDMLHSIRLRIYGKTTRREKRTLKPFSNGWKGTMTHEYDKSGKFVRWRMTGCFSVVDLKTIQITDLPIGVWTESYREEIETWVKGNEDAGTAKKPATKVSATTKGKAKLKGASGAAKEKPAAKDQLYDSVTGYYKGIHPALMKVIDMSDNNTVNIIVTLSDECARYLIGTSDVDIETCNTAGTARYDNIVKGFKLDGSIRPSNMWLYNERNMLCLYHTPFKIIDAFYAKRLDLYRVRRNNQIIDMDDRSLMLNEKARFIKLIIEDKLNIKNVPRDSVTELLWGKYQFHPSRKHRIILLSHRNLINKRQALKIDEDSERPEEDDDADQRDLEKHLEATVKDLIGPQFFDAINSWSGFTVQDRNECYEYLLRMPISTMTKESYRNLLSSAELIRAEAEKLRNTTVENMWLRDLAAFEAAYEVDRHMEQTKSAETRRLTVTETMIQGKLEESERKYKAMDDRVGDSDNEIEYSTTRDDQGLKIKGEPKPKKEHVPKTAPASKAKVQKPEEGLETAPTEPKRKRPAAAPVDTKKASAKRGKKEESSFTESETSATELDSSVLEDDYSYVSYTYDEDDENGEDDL", "test": "EMSA; EMSA: 0.02 pmol 5'-labeled probe, 5 ng protein, 20 ul, 0.5 ug poly(dI-dC), 15 min, room temperature, 6% acrylamide gel; buffer, salt and pH only by citation", "details": "protein: recombinant; tags: C-terminal V5-His; chain copies: 2; label: 5'-32P"}, "[2]": {"target": "T2, Topo IIN (Giardia lamblia, UniProt E2RU90 1-488)", "T2 sequence": "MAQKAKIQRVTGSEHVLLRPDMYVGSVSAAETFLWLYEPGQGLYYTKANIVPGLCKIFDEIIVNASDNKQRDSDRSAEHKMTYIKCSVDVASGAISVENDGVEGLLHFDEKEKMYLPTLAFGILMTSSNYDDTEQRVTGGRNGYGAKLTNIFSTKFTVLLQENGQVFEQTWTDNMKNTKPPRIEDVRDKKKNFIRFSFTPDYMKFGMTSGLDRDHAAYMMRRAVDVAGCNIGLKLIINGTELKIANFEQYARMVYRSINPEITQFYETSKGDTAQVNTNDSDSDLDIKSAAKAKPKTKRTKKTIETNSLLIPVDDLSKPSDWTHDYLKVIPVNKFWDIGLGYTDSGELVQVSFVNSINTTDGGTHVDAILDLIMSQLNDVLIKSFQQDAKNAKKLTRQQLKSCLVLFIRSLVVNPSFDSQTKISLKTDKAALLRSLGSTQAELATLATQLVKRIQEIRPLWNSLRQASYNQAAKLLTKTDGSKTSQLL", "test": "EMSA; EMSA: 0.02 pmol 5'-labeled probe, 5 ng protein, 20 ul, 0.5 ug poly(dI-dC), 15 min, room temperature, 6% acrylamide gel; buffer, salt and pH only by citation", "details": "protein: recombinant; tags: C-terminal V5-His; label: 5'-32P"}}, "data": [{"binder": "B1", "values": [{"measurement": "binding result", "setting": "[1]", "value": "binds"}, {"measurement": "binding result", "setting": "[2]", "value": "no binding"}]}]}
